Test [1] concerns the target T1, recombinant human DLL4 (Cat# 1506-D4/CF, R&D Systems) (human, UniProt Q9NR61 27-529).
T1 construct: Bought protein; also called hDLL4; rHuman DLL4
In words: ELISA, DLL4 coated, Fab 50 nM. As for the experimental part: (§1) In this example, an ELISA binding assay was used to assess the dose-dependent binding of Fab antibodies to recombinant human DLL4 and recombinant mouse DLL4.
(§2) The plate was blocked by adding 1% BSA in Tris-buffered Saline Tween (TBST) and incubating for 1 hour at room temperature followed by washing 2 times with 150 μl TBST. A Fab antibody was serially diluted in 1% BSA in PBS. A 50 μl aliquot of each serial dilution was added, in triplicate, to each well and the plate was incubated for 1 hour at room temperature followed by washing 2 times with TBST. 50 μl of either goat anti-human kappa HRP conjugated secondary antibody (Cat # A7164-1 mL, Sigma-Aldrich) or goat anti-human lambda HRP conjugated secondary antibody (Cat # L1645-1 ml, Sigma-Aldrich), diluted 1:1000 in 1% BSA in PBS, was added to each well and the plate was incubated for 30 minutes at room temperature followed by washing 3 times with 200 μl TBST. Finally, 50 μl TMB one-component reagent (Cat # TMBW-1000-01, BioFax) was added and allowed to develop for 2 minutes at room temperature. The reaction was immediately halted by the addition of 50 μl 0.5M H₂SO₄ and the absorbance at 450 nm was measured using an ELISA plate reader.
On the technique in general: ELISA stands for enzyme-linked immunosorbent assay.

Test [2] addresses T1, recombinant human DLL4 (Cat# …). Kind of test: ELISA, DLL4 coated, Fab 3.70 nM. As for the experimental part:
as §2

Test [3] has the same target. In words: ELISA, DLL4 coated, Fab 100 nM. As for the experimental part: as §2
Test [4] has the same target. In words: ELISA, DLL4 coated, Fab 12.5 nM. Here is the method: as §1, §2
The target is the same in test [5]. Kind of test: ELISA, DLL4 coated, Fab 11.11 nM.
For test [6] the target is unchanged. In words: ELISA, DLL4 coated, Fab 2.22 nM. As for the experimental part: as §2
The target is the same in test [7]. In words: ELISA, DLL4 coated, Fab 25 nM. In short, it runs like this: (§3)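 A450 read-out after 2 min TMB development and acid stop. Fab, serially diluted in 1% BSA/PBS, bound in triplicate for 1 h at RT on plates blocked with 1% BSA/TBST; detection via HRP goat anti-human kappa or lambda (1:1000, 30 min RT).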
Test [8] shares this target. Kind of test: ELISA, DLL4 coated, Fab 6.67 nM. As for the experimental part: as §2
Test [9] shares this target. In words: ELISA, DLL4 coated, Fab 100 nM. Here is the method: as §1, §2
The source holds these as a separate data set.

The target is the same in test [10]. In words: ELISA, DLL4 coated, Fab 20 nM. In short, it runs like this:
as §3

Test [11] shares this target. Kind of test: ELISA, DLL4 coated, Fab 0.14 nM. Here is the method:
as §2

For test [12] the target is unchanged. Kind of test: ELISA, DLL4 coated, Fab 1.23 nM. As for the experimental part: as §2
Test [13] has the same target. In words: ELISA, DLL4 coated, Fab 0.74 nM. Here is the method: as §2
For test [14] the target is unchanged. Kind of test: SPR (ProteOn), hDLL4 amine-coupled on chip. The gist of the method: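 SPR on a ProteOn GLM chip, with DLL4 amine-coupled at three surface densities. Fab analytes were run as 3-fold serial dilutions from 1 μM in 10 mM HEPES pH 7.4, 150 mM NaCl, 0.01% Tween-20, 0.1 mg/ml BSA at 25° C. Responses from each surface were globally fit for binding constants.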

The target is the same in test [15]. Kind of test: ELISA, DLL4 coated, Fab 33.33 nM. Here is the method: as §2
The target is the same in test [16]. In words: ELISA, DLL4 coated, Fab 0.41 nM. As for the experimental part: as §2

Results on four molecules are retold here after patent US20110318339A1 (FABRUS, published 2011).

Residue numbers refer to the chain shown, from its start. Names and notes keep the numbering of the source.

B1: Fab VH5-51_IGHD5-18*01>3_IGHJ4*01 G100K/G104T G24T/S28R/G35V & V3-4_IGLJ1*01 (Fab, V domains shown)
VH: EVQLVQSGAEVKKPGESLKISCKTSGYRFTSYWIVWVRQMPGKGLEWMGIIYPGDSDTRYSPSFQGQVTISADKSISTAYLQWSSLKASDTAMYYCARRKYSYTYDYFDYWGQGTLVTVSS
VL: QTVVTQEPSFSVSPGGTVTLTCGLSSGSVSTSYYPSWYQQTPGQAPRTLIYSTNTRSSGVPDRFSGSILGNKAALTITGAQADDESDYYCVLYMGSGISYVFGTGTKVTVL
notes: Fab made in E. coli: VH on CH1 with His6 and Flag tags (Plasmid A), VL on lambda CL (Plasmid E); also called H: KT TRV & L: wt
With B1, the “ELISA absorbance at 450 nm” value in test [1] came to 0.32 A450; in test [2], 0.03 A450; in [3], 0.16 A450; in test [4], 0.23 A450; in test [5], 0.04 A450; in test [6] it was 0 A450. Moreover, the “ELISA absorbance at 450 nm” value in test [7] was 0.26 A450; in test [8] it was 0.023 A450; in test [9], 0.45 A450; in test [10], 0.054 A450; in [11], 0 A450; in test [12] it was 0.01 A450. The “ELISA absorbance at 450 nm” value in test [13] came out at 0.002 A450; in [15] it was 0.08 A450; in test [16], 0.01 A450. Moreover, the Kd (in general, the concentration at which binding is half-saturated) in test [14] stood at 36.2 nM. In addition, in [14], the koff (as a rule, the rate constant with which the complex falls apart) was 0.0717 s⁻¹. In addition, the kon (commonly the rate constant with which the complex forms) in test [14] worked out at 2.09e+06 M⁻¹ s⁻¹.

B2: Fab VH5-51_IGHD5-18*01>3_IGHJ4*01 G100K/G104T G24T/S28R/G35V & V3-4_IGLJ1*01 V91L/S96P S52G (Fab, V domains shown)
VH: B1 VH
VL: B1 VL with S52G, V91L, S96P
notes: Fab made in E. coli: VH on CH1 with His6 and Flag tags (Plasmid A), VL on lambda CL (Plasmid E); also called H: KT TRV & L: LP S52G
Turning to B2, the “ELISA absorbance at 450 nm” value was 1.02 A450 in test [1]; 0.06 A450 in test [2]; 0.69 A450 in test [3]; 0.63 A450 in test [4]; 0.17 A450 in test [5]; 0.9 A450 in [7]. For the same molecule, the “ELISA absorbance at 450 nm” value in test [9] worked out at 1.14 A450; in [11], 0.02 A450; in test [12], 0.03 A450; in test [15] it was 0.35 A450; in test [16], 0.01 A450. Further, the Kd in [14] was 5 nM. For the same molecule, the koff in test [14] turned out to be 0.0147 s⁻¹. In addition, in test [14], the kon was determined as 2.96e+06 M⁻¹ s⁻¹.

B3: Fab VH5-51_IGHD5-18*01>3_IGHJ4*01 G100K/G104T G24T/S28R/G35V & V3-4_IGLJ1*01 V91L/S96P (Fab, V domains shown)
VH: B1 VH
VL: B1 VL with V91L, S96P
notes: Fab made in E. coli: VH on CH1 with His6 and Flag tags (Plasmid A), VL on lambda CL (Plasmid E); also called H: KT TRV & L: LP
Turning to B3, the “ELISA absorbance at 450 nm” value in [1] stood at 0.81 A450; in test [2], 0.03 A450; in [3] it was 0.34 A450; in [4] it was 0.45 A450; in [5], 0.07 A450; in test [7], 0.58 A450. Besides, the “ELISA absorbance at 450 nm” value was 1 A450 in test [9]; 0.03 A450 in test [11]; 0.03 A450 in [12]; 0.19 A450 in test [15]; 0.02 A450 in [16]. In test [14], the Kd amounted to 3.3 nM. The koff in test [14] was determined as 0.036 s⁻¹. The kon in test [14] is 1.1e+07 M⁻¹ s⁻¹.

B4: Fab VH5-51_IGHD5-18*01>3_IGHJ4*01 G100K/G104T G24T/S28R/G35V & V3-4_IGLJ1*01 V91L/S96P S52M (Fab, V domains shown)
VH: B1 VH
VL: B1 VL with S52M, V91L, S96P
notes: Fab made in E. coli: VH on CH1 with His6 and Flag tags (Plasmid A), VL on lambda CL (Plasmid E); also called H: KT TRV & L: LP S52M
With B4, the “ELISA absorbance at 450 nm” value worked out at 0.8 A450 in test [1]; 0.03 A450 in [2]; 0.24 A450 in test [3]; 0.41 A450 in test [4]; 0.06 A450 in [5]; 0.59 A450 in [7]. The “ELISA absorbance at 450 nm” value in test [9] worked out at 1.01 A450; in test [11], 0.02 A450; in test [12], 0.03 A450; in test [15], 0.12 A450; in test [16], 0.03 A450.
